Measured values reported in PMC4006906 (PLoS Pathogens, 2014).

Target: T1, A/California/04/2009 (H1CA0409) recombinant HA (Influenza A virus, A/California/04/2009 …, UniProt C3W5S1, strain)
T1 construct: source: supplied by BEI Resources
Experiment: ELISA
Conditions: both partners purified

B1: F10 scFv (wild type) (scFv, V domains shown)
VH: QVQLVQSGAEVKKPGSSVKVSCTSSEVTFSSFAISWVRQAPGQGLEWLGGISPMFGTPNYAQKFQGRVTITADQSTRTAYMDLRSLRSEDTAVYYCARSPSYICSGGTCVFDHWGQGTLVTVSS
VL: QPGLTQPPSVSKGLRQTATLTCTGNSNNVGNQGAAWLQQHQGHPPKLLSYRNNDRPSGISERFSASRSGNTASLTITGLQPEDEADYYCSTWDSSLSAVVFGGGTKLTVL
notes: also called F10 wt; construct #1; source: E. coli BL21 (DE3), purified (streptactin beads)
binding result: binds
